In one data set the target is apo GPR158 (human) (UniProt Q5T848). The data set can be described thus: cryo-EM structure; apo GPR158 in 20 mM HEPES pH 7.5, 200 mM NaCl, 0.01% LMNG, 0.001% CHS, 5 mM EDTA, with 0.1% OG added; 12.7 mg/ml.
Data set [1] deals with GPR158 (residues 1–863) (human) (UniProt Q5T848). The data set can be described thus: cryo-EM structure; GPR158 (1-863), RGS7-Flag and Gβ5 co-expressed, co-purified by anti-Flag resin and Superose 6 in LMNG/CHS, treated with 0.1% OG; 2:1:1 and 2:2:2 complexes sorted from one sample.
Data set [2] deals with the molecule itself. Described as above.

Data on 3 molecules can be found in publication PMC8611064, “Structure of the class C orphan GPCR GPR158 in complex with RGS7-Gβ5” (Nature Communications, 2021).

In the data set with apo GPR158 (human), “apo GPR158 (from UniProt Q5T848 24-710) (receptor)” gave a stoichiometry N of 2 protomers.

In data set [1], “RGS7–Gβ5 heterodimer (from UniProt P49802 1-495; O14775 1-395) (complex)” registered a stoichiometry N (RGS7–Gβ5 heterodimer per GPR158 dimer) of 1 and a stoichiometry N (RGS7–Gβ5 heterodimers per GPR158 dimer) of 2.

B1: GPR158 (residues 1–863) (receptor, human, UniProt Q5T848 24-863, looked up)
chain: ASRDPQGRPDSPRERTPKGKPHAQQPGRASASDSSAPWSRSTDGTILAQKLAEEVPMDVASYLYTGDSHQLKRANCSGRYELAGLPGKWPALASAHPSLHRALDTLTHATNFLNVMLQSNKSREQNLQDDLDWYQALVWSLLEGEPSISRAAITFSTDSLSAPAPQVFLQATREESRILLQDLSSSAPHLANATLETEWFHGLRRKWRPHLHRRGPNQGPRGLGHSWRRKDGLGGDKSHFKWSPPYLECENGSYKPGWLVTLSSAIYGLQPNLVPEFRGVMKVDINLQKVDIDQCSSDGWFSGTHKCHLNNSECMPIKGLGFVLGAYECICKAGFYHPGVLPVNNFRRRGPDQHISGSTKDVSEEAYVCLPCREGCPFCADDSPCFVQEDKYLRLAIISFQALCMLLDFVSMLVVYHFRKAKSIRASGLILLETILFGSLLLYFPVVILYFEPSTFRCILLRWARLLGFATVYGTVTLKLHRVLKVFLSRTAQRIPYMTGGRVMRMLAVILLVVFWFLIGWTSSVCQNLEKQISLIGQGKTSDHLIFNMCLIDRWDYMTAVAEFLFLLWGVYLCYAVRTVPSAFHEPRYMAVAVHNELIISAIFHTIRFVLASRLQSDWMLMLYFAHTHLTVTVTIGLLLIPKFSHSSNNPRDDIATEAYEDELDMGRSGSYLNSSINSAWSEHSLDPEDIRDELKKLYAQLEIYKRKKMITNNPHLQKKRCSKKGLGRSIMRRITEIPETVSRQCSKEDKEGADHGTAKGTALIRKNPPESSGNTGKSKEETLKNRVFSLKKSHSTYDHVRDQTEESSSLPTESQEEETTENSTLESLSGKKLTQKLKE
notes: signal peptide in the construct; human GPR158 residues 1-863, followed by a PreScission protease site, GFP and a Twin-Strep II tag; No PreScission cleavage is told for the purification of the complex
Turning to B1, the “stoichiometry N” value in data set [2] is 2 protomers.

The stoichiometry N is the number of molecules, sites or subunits per partner or assembly.
